The text below walks through data of publication PMC5720770.

The data set deals with T1, OxyR (Pseudomonas aeruginosa (PAO1?)) (UniProt Q9HTL4).
T1 sequence: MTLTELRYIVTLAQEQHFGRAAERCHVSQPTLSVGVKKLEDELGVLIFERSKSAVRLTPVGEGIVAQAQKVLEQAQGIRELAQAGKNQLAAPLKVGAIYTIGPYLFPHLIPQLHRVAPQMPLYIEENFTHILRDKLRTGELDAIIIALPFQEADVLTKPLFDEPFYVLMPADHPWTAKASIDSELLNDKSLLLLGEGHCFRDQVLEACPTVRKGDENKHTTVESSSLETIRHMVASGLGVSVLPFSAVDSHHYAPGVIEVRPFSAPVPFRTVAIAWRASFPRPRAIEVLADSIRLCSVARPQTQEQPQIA
As to the kind of experiment: DNase I footprinting. The note with it: Footprint: 20 mM Tris-HCl pH 7.0, 50 mM KCl, 1 mM EDTA, 5% glycerol, 50 ug/ml BSA, 5 ug/ml calf thymus DNA, 0.5 ug/ml poly(dI-dC), 25 C, 15 min; EMSA: Roche …. Background: Mobility shift assays separate free from complexed probe on a gel.

Regarding “CAGGCGCTCGGCGGCGCGGGTGAAACTGCCTTCGCGGGCGACGGCGTCGAAGGCGCGGAGCTGGAAGAGATTCATGGTATCGGCCTGGCTTATGGCTGGCATCGGAACAAACAATTTGAACGATAGTAGCGCGGCGCTCACCTTATGTCTCCAGGCTTCCCTGGAACGCCGGCGCGGAACGACCGCCCGGACCGCGAAG (double strand) [phnW promoter 199-bp fragment (footprint)]”, the binding result is on record as “binds”.
